Experimental data reported in patent publication US20050239704.

Target: T1, SarA (Staphylococcus aureus) (UniProt Q2G2U9)
T1 sequence: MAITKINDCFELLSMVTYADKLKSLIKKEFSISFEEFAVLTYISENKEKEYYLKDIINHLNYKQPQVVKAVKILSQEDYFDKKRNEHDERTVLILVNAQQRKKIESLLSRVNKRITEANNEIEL
Assay: EMSA
Conditions: 2-5 ng radiolabeled P1 fragment; scale: fold more protein than SarR for complete shift

sarA P1 promoter fragment (nt 531-859)
binding signal: 10
